According to US20160271244A1:

Molecular target: Env (gp120) of HIV-1 JRCSF.N160K (HIV-1), P20871
Test: cell-based or functional assay

B1: CH01 (antibody, V domains shown)
VH: EVQLVESGANVVRPGGSLRLSCKASGFIFENFGFSWVRQAPGKGLQWVAGLNWNGGDTRYADSVKGRFRMSRDNSRNFVYLDMDKVGVDDTAFYYCARGTDYTIDDAGIHYQGSGTFWYFDLWGRGTLVSVSS
VL: EIVLTQSPGTLSLSPGERATLSCRASHNVHPKYFAWYQQKPGQSPRLLIYGGSTRAAGIPGKFSGSGSGTDFTLTISRVDPEDFAVYYCQQYGGSPYTFGQGTKVEI
Binder B1 has an IC50 (virus neutralization) greater than 50 µg/mL and an IC80 (virus neutralization) greater than 50 µg/mL.
